US12156920B2, “Double-labeled probe for molecular imaging and use thereof” (Deutsches Krebsforschungszentrum, priority 2017, dated 2024)

Tests used:
[1] = Biodistribution (organ distribution) of 68Ga-labeled compounds; assay type: in vivo, mice; conditions: male, BALB/c nu/nu, mouse, in vivo, iv, 60 pmol, total radioactivity
Protocol: (§1) The precursor peptides [1 nmol in HEPES buffer (580 mg/ml), 90 μL] were added to 40 μL [^68Ga]Ga^3+ eluate (˜40 MBq). The pH was adjusted to 3.8 using 30% NaOH and 10% NaOH, respectively. The reaction mixture was incubated at 98° C. for 10 minutes. The radiochemical yield (RCY) was determined by HPLC. For the experimental tumor models 5×10^6 cells of LNCaP (in 50% Matrigel; Becton Dickinson, Heidelberg, Germany) were subcutaneously inoculated into the right trunk of 7- to 8-week-old male BALB/c nu/nu mice (Charles River). The tumors were allowed to grow until approximately 1 cm^3 in size. The ^68Ga-labeled compounds were injected into a tail vein (1-2 MBq; 60 pmol). […] Organs of interest were dissected, blotted dry, and weighed. The radioactivity was measured using a gamma counter and calculated as % ID/g. All animal experiments complied with the current laws of the Federal Republic of Germany.

[2] = target: T1, PSMA (Homo sapiens, UniProt Q04609); assay: Competitive cell binding assay on LNCaP cells (PSMA binding affinity); conditions: competition against 0.2 nM 68Ga-labeled PSMA-10
T1 construct: endogenous in cells; host or cells: LNCaP cells (ATCC CRL-1740)
T1 sequence (Q04609 whole entry): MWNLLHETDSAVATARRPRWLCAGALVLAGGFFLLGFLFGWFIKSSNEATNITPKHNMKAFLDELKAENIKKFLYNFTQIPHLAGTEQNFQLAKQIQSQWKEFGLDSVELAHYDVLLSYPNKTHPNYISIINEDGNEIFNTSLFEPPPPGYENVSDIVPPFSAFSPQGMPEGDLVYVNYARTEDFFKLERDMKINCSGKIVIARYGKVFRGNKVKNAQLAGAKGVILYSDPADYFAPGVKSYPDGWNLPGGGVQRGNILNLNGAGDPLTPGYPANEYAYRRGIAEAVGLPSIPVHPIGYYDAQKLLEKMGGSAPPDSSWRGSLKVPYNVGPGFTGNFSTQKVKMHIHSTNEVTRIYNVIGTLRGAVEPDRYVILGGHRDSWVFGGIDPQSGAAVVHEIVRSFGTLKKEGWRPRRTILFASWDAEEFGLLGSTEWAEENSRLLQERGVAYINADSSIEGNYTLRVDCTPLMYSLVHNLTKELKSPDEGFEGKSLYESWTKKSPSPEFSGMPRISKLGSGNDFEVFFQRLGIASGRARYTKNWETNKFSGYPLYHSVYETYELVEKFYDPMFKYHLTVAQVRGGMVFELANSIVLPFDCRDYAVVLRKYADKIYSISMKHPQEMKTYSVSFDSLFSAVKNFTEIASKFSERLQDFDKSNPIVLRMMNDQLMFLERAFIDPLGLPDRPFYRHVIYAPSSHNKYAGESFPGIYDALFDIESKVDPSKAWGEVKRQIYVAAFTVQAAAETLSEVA
Protocol: PSMA^+ LNCaP cells (ATCC CRL-1740) were cultured in RPMI medium supplemented with 10% fetal calf serum and 2 mmol/L L-glutamine (all from PAA). Cells were grown at 37° C. in humidified air with 5% CO2 and were harvested using trypsin-ethylenediaminetetraacetic acid (trypsin-EDTA; 0.25% trypsin, 0.02% EDTA, Invitrogen).
The competitive cell binding assay and internalization experiments were performed as described previously (4). Briefly, the cells (10^5 per well) were incubated with a 0.2 nM solution of ^68Ga-labeled radioligand [Glu-urea-Lys(Ahx)]2-HBED-CC (PSMA-10, precursor ordered from ABX, Radeberg, Germany) in the presence of 12 different concentrations of analyte (0-5000 nM, 100 μL/well). After incubation, the mixture was removed and the wells were washed 3 times with PBS using a multiscreen vacuum manifold (Millipore, Billerica, Mass.). Cell-bound radioactivity was measured using a gamma counter (Packard Cobra II, GMI, Minnesota, USA). The 50% inhibitory concentration (IC50) values were calculated by fitting the data using a nonlinear regression algorithm (GraphPad Software).

[3] = system: LNCaP-tumor bearing balb/c nu/nu mice; assay: Biodistribution (organ distribution) of 68Ga-labeled compounds; assay type: in vivo; conditions: mouse, in vivo
Protocol: as §1

[4] = Organ distribution Tumor (tumor accumulation)
[5] = Tumor-to-Organ ratio T/Intestine

Compound: CC1(C)C(/C=C/C2=C(Oc3ccc(S(=O)(=O)O)cc3)C(=C\C=C3/N(CCCCS(=O)(=O)O)c4ccc(S(=O)(=O)O)cc4C3(C)C)/CCC2)=[N+](CCCCCC(=O)NCCOCCOCCNC(=O)CCc2ccc(O)c(CN(CCN(CC(=O)O)Cc3cc(CCC(=O)NCc4cn(CCCCC(=O)NC(CCC(=O)O)C(=O)NC(Cc5cnc[nH]5)C(=O)NCCCCC(NC(=O)NC(CCC(=O)O)C(=O)O)C(=O)O)nn4)ccc3O)CC(=O)O)c2)c2ccc(S(=O)(=O)O)cc21 (centres unmarked) [PSMA-(HE)1-HBED-CC-PEG2-IRDye800CW, Glu-urea-Lys-(HE)1-HBED-CC-PEG2-IRDye800CW]
- tissue uptake at 1 h ([1]; Organ distribution Blood): 1.52 %ID/g
- tissue uptake at 1 h ([1]; Organ distribution Brain): 0.3 %ID/g
- tissue uptake at 1 h ([1]; Organ distribution Heart): 0.94 %ID/g
- tissue uptake at 1 h ([1]; Organ distribution Intestine): 1.29 %ID/g
- tissue uptake at 1 h ([1]; Organ distribution Kidney): 84.3 %ID/g
- tissue uptake at 1 h ([1]; Organ distribution Liver): 1.19 %ID/g
- tissue uptake at 1 h ([1]; Organ distribution Lung): 2.46 %ID/g
- tissue uptake at 1 h ([1]; Organ distribution Muscle): 1.03 %ID/g
- tissue uptake at 1 h ([1]; Organ distribution Spleen): 8.17 %ID/g
- tissue uptake at 1 h [1, 4]: 3.92 %ID/g
- tissue to tissue ratio at 1 h ([1]; Tumor-to-Organ ratio T/Blood): 2.58
- tissue to tissue ratio at 1 h ([1]; Tumor-to-Organ ratio T/Brain): 13
- tissue to tissue ratio at 1 h ([1]; Tumor-to-Organ ratio T/Heart): 4.19
- tissue to tissue ratio at 1 h [1, 5]: 3.05
- tissue to tissue ratio at 1 h ([1]; Tumor-to-Organ ratio T/Kidney): 0.05
- tissue to tissue ratio at 1 h ([1]; Tumor-to-Organ ratio T/Liver): 3.3
- tissue to tissue ratio at 1 h ([1]; Tumor-to-Organ ratio T/Lung): 1.6
- tissue to tissue ratio at 1 h ([1]; Tumor-to-Organ ratio T/Muscle): 3.81
- tissue to tissue ratio at 1 h ([1]; Tumor-to-Organ ratio T/Spleen): 0.48

Compound: CC1(C)C(/C=C/C2=C(Oc3ccc(S(=O)(=O)O)cc3)C(=C\C=C3/N(CCCCS(=O)(=O)O)c4ccc(S(=O)(=O)O)cc4C3(C)C)/CCC2)=[N+](CCCCCC(=O)NCCOCCOCCNC(=O)CCc2ccc(O)c(CN(CCN(CC(=O)O)Cc3cc(CCC(=O)NCc4cn(CCCCC(=O)N[C@@H](CCC(=O)O)C(=O)N[C@@H](Cc5cnc[nH]5)C(=O)N[C@@H](CCC(=O)O)C(=O)N[C@@H](Cc5cnc[nH]5)C(=O)N[C@@H](CCC(=O)O)C(=O)N[C@@H](Cc5cnc[nH]5)C(=O)NCCCC[C@H](NC(=O)N[C@@H](CCC(=O)O)C(=O)O)C(=O)O)nn4)ccc3O)CC(=O)O)c2)c2ccc(S(=O)(=O)O)cc21 [PSMA-(HE)3-HBED-CC-PEG2-IRDye800CW, Glu-urea-Lys-(HE)3-HBED-CC-PEG2-IRDye800CW]
- Ki [2]: 36.7 ± 9.77 nM
- tissue uptake at 1 h ([1]; Organ distribution Blood): 1.12 %ID/g
- tissue uptake at 2 h ([1]; Organ distribution Blood): 0.65 %ID/g
- tissue uptake at 1 h ([1]; Organ distribution Brain): 0.18 %ID/g
- tissue uptake at 2 h ([1]; Organ distribution Brain): 0.23 %ID/g
- tissue uptake at 1 h ([1]; Organ distribution Heart): 1.36 %ID/g
- tissue uptake at 2 h ([1]; Organ distribution Heart): 0.53 %ID/g
- tissue uptake at 1 h ([1]; Organ distribution Intestine): 1.31 %ID/g
- tissue uptake at 2 h ([1]; Organ distribution Intestine): 0.67 %ID/g
- tissue uptake at 1 h ([1]; Organ distribution Kidney): 109 %ID/g
- tissue uptake at 2 h ([1]; Organ distribution Kidney): 55.8 %ID/g
- tissue uptake at 1 h ([1]; Organ distribution Liver): 1.25 %ID/g
- tissue uptake at 2 h ([1]; Organ distribution Liver): 0.76 %ID/g
- tissue uptake at 1 h ([1]; Organ distribution Lung): 2.34 %ID/g
- tissue uptake at 2 h ([1]; Organ distribution Lung): 0.89 %ID/g
- tissue uptake at 1 h ([1]; Organ distribution Muscle): 1.18 %ID/g
- tissue uptake at 2 h ([1]; Organ distribution Muscle): 0.47 %ID/g
- tissue uptake at 1 h ([1]; Organ distribution Spleen): 3.47 %ID/g
- tissue uptake at 2 h ([1]; Organ distribution Spleen): 0.76 %ID/g
- tissue uptake at 2 h ([1]; Organ distribution Tumor): 3.1 %ID/g
- tissue uptake at 1 h [1, 4]: 7.59 %ID/g
- tissue to tissue ratio at 1 h ([1]; Tumor-to-Organ ratio T/Blood): 6.8
- tissue to tissue ratio at 1 h ([1]; Tumor-to-Organ ratio T/Brain): 42.6
- tissue to tissue ratio at 1 h ([1]; Tumor-to-Organ ratio T/Heart): 5.57
- tissue to tissue ratio at 1 h [1, 5]: 5.8
- tissue to tissue ratio at 1 h ([1]; Tumor-to-Organ ratio T/Kidney): 0.07
- tissue to tissue ratio at 1 h ([1]; Tumor-to-Organ ratio T/Liver): 6.08
- tissue to tissue ratio at 1 h ([1]; Tumor-to-Organ ratio T/Lung): 3.24
- tissue to tissue ratio at 1 h ([1]; Tumor-to-Organ ratio T/Muscle): 6.45
- tissue to tissue ratio at 1 h ([1]; Tumor-to-Organ ratio T/Spleen): 2.19
- Tumor-to-Organ ratio T/Blood [3]: 6.80
- Tumor-to-Organ ratio T/Brain [3]: 42.63
- Tumor-to-Organ ratio T/Heart [3]: 5.57
- Tumor-to-Organ ratio T/Intestine [3]: 5.80
- Tumor-to-Organ ratio T/Kidney [3]: 0.07
- Tumor-to-Organ ratio T/Liver [3]: 6.08
- Tumor-to-Organ ratio T/Lung [3]: 3.24
- Tumor-to-Organ ratio T/Muscle [3]: 6.45
- Tumor-to-Organ ratio T/Spleen [3]: 2.19

Compound: CC1(C)C(/C=C/C2=C(Oc3ccc(S(=O)(=O)O)cc3)C(=C\C=C3/N(CCCCS(=O)(=O)O)c4ccc(S(=O)(=O)O)cc4C3(C)C)/CCC2)=[N+](CCCCCC(=O)NCCOCCOCCNC(=O)CCc2ccc(O)c(CN(CCN(CC(=O)O)Cc3cc(CCC(=O)NCc4cn(CCCCC(=O)NC(CCC(=O)O)C(=O)NC(Cc5c[nH]c6ccccc56)C(=O)NCCCCC(NC(=O)NC(CCC(=O)O)C(=O)O)C(=O)O)nn4)ccc3O)CC(=O)O)c2)c2ccc(S(=O)(=O)O)cc21 (centres unmarked) [PSMA-(WE)1-HBED-CC-PEG2-IRDye800CW, Glu-urea-Lys-(WE)1-HBED-CC-PEG2-IRDye800CW]
- tissue uptake at 1 h ([1]; Organ distribution Blood): 1.61 %ID/g
- tissue uptake at 1 h ([1]; Organ distribution Brain): 0.15 %ID/g
- tissue uptake at 1 h ([1]; Organ distribution Heart): 1.49 %ID/g
- tissue uptake at 1 h ([1]; Organ distribution Intestine): 0.96 %ID/g
- tissue uptake at 1 h ([1]; Organ distribution Kidney): 105 %ID/g
- tissue uptake at 1 h ([1]; Organ distribution Liver): 1.73 %ID/g
- tissue uptake at 1 h ([1]; Organ distribution Lung): 2.57 %ID/g
- tissue uptake at 1 h ([1]; Organ distribution Muscle): 1 %ID/g
- tissue uptake at 1 h ([1]; Organ distribution Spleen): 12.9 %ID/g
- tissue uptake at 1 h [1, 4]: 3.85 %ID/g
- tissue to tissue ratio at 1 h ([1]; Tumor-to-Organ ratio T/Blood): 2.39
- tissue to tissue ratio at 1 h ([1]; Tumor-to-Organ ratio T/Brain): 25.6
- tissue to tissue ratio at 1 h ([1]; Tumor-to-Organ ratio T/Heart): 2.59
- tissue to tissue ratio at 1 h [1, 5]: 4.01
- tissue to tissue ratio at 1 h ([1]; Tumor-to-Organ ratio T/Kidney): 0.04
- tissue to tissue ratio at 1 h ([1]; Tumor-to-Organ ratio T/Liver): 2.23
- tissue to tissue ratio at 1 h ([1]; Tumor-to-Organ ratio T/Lung): 1.5
- tissue to tissue ratio at 1 h ([1]; Tumor-to-Organ ratio T/Muscle): 3.86
- tissue to tissue ratio at 1 h ([1]; Tumor-to-Organ ratio T/Spleen): 0.3
